The nanobody polyreactivity screen of Harvey et al. (2022)

Assay: yeast display, Sf9 membrane polyspecificity reagent, FACS + sequencing; frameworks hold sequencing errors
In short: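 Nanobodies came from a synthetic yeast display library in Saccharomyces cerevisiae BJ5465, induced with galactose for 36–48 hours and stained for 1 hour at 4 °C with 10% biotinylated, detergent-solubilized Sf9 membrane reagent. Cells were enriched on streptavidin microbeads and then FACS-sorted, with low and high (top ~1%) gates set on anti-HA fluorescence for expression and streptavidin fluorescence for reagent binding. Each polyreactivity label reflects the gate a clone came from. Genes were amplified by colony PCR, sequenced by MiSeq 2 × 250 and filtered by CDR length.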

Sequence	polyreactivity (PSR sort gate)
QVQLVESGGGLVQAGGSLRLSCAASGRTFKSYAMGWYRQAPGKERELVAAISRSSGSTYYADSVKGRFTISRDNAKNTVYLQMNSLKPEDTAVYYCATTKRVGYNYWGQGTQVTVSS	high polyreactivity
QVQLVESGGGLVQAGCSLRISCAASGSTFYPYAMGWYRQAPGKERELVAAISSGGSTYYADSVKGRFTISRDNAKNTVYLQMNSVKPEDTAVYYCAADFYYAYYWGQGTQVTVSS	low polyreactivity
QVQLVESGGGLVRAGGSLRLSCAASGSTFPFYAMGWYRQAPGKERELVAAITSGGSTYADSVKGRFTISRDNAKNTVYFQMNSLKAEVTAVYYCAASWPRWWRFGYWGQGTQVTVSS	low polyreactivity
QVQLVESGGGLVQAGGSLRLSCAASGSIFYRNVMGWYRQAPGKERELVATISRGGTTNYADSVKGRFTISRDNAKNTVYLQMNSLKPEDTAVYYCALKQSYYFGSYFYGHEYYYWGPGTQVTVSS	low polyreactivity
QVQLVESGGGLVQAGCSLRLSCAATGSFFGFYSMGWYRQAPGKEMELVASITISGGSTYYADSVKGRFTISRDNAKNNVYLQMNSLKLEDTAVYFCAAETYAYLFHTYDYWGQGTHVTVSS	low polyreactivity
QVQLIESGGGLVQAGGSLRLSCAASGSIFAANAMGWYRQAPGKEREFVASISYTGASTYADSVKGRFTISRDNAKNTVYLQINSLKPEDTAVYYCAKDGYWTGLDPYYYWGQGTQVTVSS	low polyreactivity
QVQVVESGGGLVQAGGSLGLSCAASGRTFGSNAMGWYRQAPGKERELVAAISSTVSTNYADSVKGRFTISSDNANNTVYLQMNSLKPEDTAVYFCNVTRHYSYVSEYDYWGQGTQVTVSS	low polyreactivity
QVQLVESGGGLVQAGGSLRLSCAASGFIIARNTMGWYRQAPAKERELVAAISSSGGSTYYADSVKGRFTISRDNAKNTFYLQMNCLKPEDTAVYYCNKGYTGLYGYDYWGQGTHVTVSS	high polyreactivity
QVQLVESGGGLVQAGGSLRLSCAASGRTFYWYALGWYRQAPGKERELVAAITKSGGSTYYADSVKGRFTISRDNAKNTVYLQMNSLKPEDTAVYYWAARYLYLLYYWGQGTQVTVSS	high polyreactivity
QVQLVESGGGLFQAGGSLRLSCAASGRIFPWNTMGWYRQAPGKERELVAGINNGDRTYYADSVKGRFTISRVNAKNTVYLQMNSLKPEDTAVYYCAVDTWYFLFQYGYYQEGDYWGQGTQVTVSS	low polyreactivity
QVQLVESGGGLVQAGGSLRLSCAASGFISFGNAMGWYIQAPGKERELVAGISRSGGSTYYADSVKGRFTISRDNAKNTVYLQMYSLKPEDTAVYYCATRVAIYPYRFDYWGQGTQVTVSS	high polyreactivity
QVQLVESGGRLVQAGGTLRLSCAASGRNVGLYAMGWSRQAPGKERELVAAISSTGRTTYADSVKGRFTISRDNAKNNVYLQMNSLIPEVTAVYYCKADARSVCWYYYACLFDYWGQGTQGTVSS	low polyreactivity
QVQLVESGGGLVQAGGSLRLSCAASGRIFYTKTMGWYRQAPGNEWELVAAIRSGTRTDYADSVKGRFTISRDNAKKTVYLQMNSLKPYDTAVSYCNKAAGVTGRYYYWGQGTQVTVSS	low polyreactivity
QVQLVESGGGLVQAGGSLRLSCAASGSTCDRYAMGWYRQAPGKERELVAAITDTGGSTYYADSVKGRFTISRDNAKNTVYLQMNSLKPEDTAVFYCAKGYFWSSYVSSRYGSWGQGTQVTVSS	high polyreactivity
QVQLVESGGGLVQAGGSLRLSCAASGFTFYRNAMGWSRKAPGKERELVAAISTSGGSTHYADSVKGRFTISRDNAKNTVYLQMNSLKPEDTAVYYCAKRRSIRDEFGYWGQGTQVTVSS	high polyreactivity
QVHLVESGGGLVQAGGSLRLSCAASGNIIYWNGMGWYRKAPGKEREFVADITASGGSTYYADSVKGRFTISRDNAKNTVYLQMNSLIPEDTAVYYCAAQGVDSYYENDYWGQGTQVTVSS	high polyreactivity
QVQLVESGGGLVQAGGSLRLSCAASGRTFGYYAMGWYRQAPGKERELVAAISSRGGSTYYADSVKGRFTISRDNAKNTVYLQMNSLKPEDTAVYYCNTRWTNIHPRYDYWGQGTQVTVSS	high polyreactivity
QVQLVESGGGLVQAGGSLRLSCAASGIIFTSYAMGWYRQAPGKEREFVAGISVRGSSTYYADSVKGRFTISRDNAKNTVYLQMNSLKAEDTAVYYCAARTPSRYLYYEYDYWGQGTQVTVSS	low polyreactivity
QVQLVQSGGGLVQAGGSLRLSCAASGRIFRLSGMGWYRQAPGKERELVAAITRGASTYYADSVKGRFTISRDNAKNTVYLELNSLKPEDTAVYYCAAEGLITGGYWHLYYWGHGTQVTVSS	high polyreactivity
QVQLVESGGGLVQAGGSLRLSCAASGSIFGDNAMGWYRQAPGKERELVAAIDSDGSTNYADSVNGRFTISRDNAKNTVYLQMNSLKPEDTAVYYCAASEPYSKPYTYDYWGQGTQVTVSS	low polyreactivity
QVQLVESGGGLVQAGGSLRLSCAASGRTIQYNAMGWYRQAPGKERQLVAAISSSGGSTYYADSVKGRFTISRDNAKNTVYLQMNSLKPEDTAVYYCNAYSQSWNFYGDGDYWGQGTQVTVSS	low polyreactivity

Sequence	polyreactivity (PSR sort gate)
QVQLQESGGGLVKAGGSLRLSCAASGSISNSAAMGWYRQAPGKERELVVSIGHGASSNYADSVKGRFTISRDNAKNTVYLQMNSLKPEDTAVYYCAAYPGFLDGFFYWGQSTQVTVSS	high polyreactivity
QDQLVESGGGLVQAGGSLPLSCAASANIFPLYAMGWYRQAPGKERELVAAITWSTTSTYYADSVKGRFTISRDNAKNTVYLQMNSLKPEDTAVYYCKAKTDESYYYSDYDYWVQGTQVTVSS	low polyreactivity
QVKLVESGGGLVQAGGSLRLSCADSGSIFGGNTMVWYRQAPGKEREFVAAITWGGNTYYADSVKGRFTISRDNAKNTVYLQTNSLKPEDTAVYYCAAGGRPQYWGRYYYWGQGTQVTVSS	high polyreactivity
QVQLVESGGGLVQAGGSLRLSSAASGSIFSQYDIGWYRPAPGKERQLVAAISSGGSTYYADSVKGRFTISRYNAKNTVYLQMNSLKPEDTAVYYCAAVYYQITTTHYLHLHYDYWGQGTQVTVSS	low polyreactivity
QVQLVESGGGLVQAGGSLRLSCAASGSIFTRNTMGWYRQAPGKDRELVAAITWIGGRTYYADSVKGRFTISRDNAKNTVYLQMNSLKPEDTAVYYCAARSDPYWWQKYYYWGQGTQVTVSS	high polyreactivity
QVQLVESGGGIVQAGGSLRLSCAASGSILYPYAMGWYRQAPGKERELVAAISRGGSTNYADSVKGRFTISRDNAKNTVYLQMNSLKPEDTAVYYCATAYTRFSQRYEYYVIYWQNDYWGQGTQVTVSS	low polyreactivity
QDQLVESGGGLVQAGGSLRLSCAASGRTFRRYALGWYRQAPGKETELVAVISGGGTYYADSVKGRFTISRDNAKNTVYLQMNSLKPEDTAVYYCAARYRQTRSPSYDYWGQGTQVTVSS	high polyreactivity
QVQLVESGGGLVQAGGSLRLSCAASGRIFAFYAMGWYRQAPGKEREFVAAISWSGGSTYYADSVKGRFTISRDNAKNTVYLQMNSLKPEDTAVYYCAARSRVRHSGMNYWGQGTQVTVSS	high polyreactivity
QVQLVESGGGLVQAGGSLRLSCAASGSILNSYAMGWYRQAPGKERELVASITVIGGSTYYADSVKGRFSISRDNAKNTDYLQMNSLKPEDTAVYYCNKEWIIADAYYGVHDYYYWGQGTQVTVSS	low polyreactivity
QVQLVESGGGLVQAGGSLRLSCAATGRIVTSNAMGWYRQAPGKERELVAVISRRGGSTYYADSVKGRFTISRDNAKNTVYLQMNRLKPEETAVYYCARRPYSYTRYEYWGQGTQVTVSS	low polyreactivity
QVQLVESGGGLVQAGGSLRLSCAASGRTFSYNTMGWYRQAPGKERELVASISGSGGRTYYADSVKGRFTISRDNAKNTVYLQMNSLKPEDTAVYYCAARRYSRDYDYWGQGTQVTVSS	high polyreactivity
QVQLVESGGGLVQAGGSLRLSCAASGFIFDWYAMGWYRQAPGKERELVAAITRSGGNTYYADSVKGRFTISRDNAKNTVYLQMNSLKPEDTAVYYCNAVAAVYAYGHDYWGQGTQVTVSS	high polyreactivity
QVQLEESGGGLVQAGGSLRLSCAASGSTFESYAMGWYRQAPGKERELVATITRRSTRTYYADSVKGRFTISRDNAKNTVYLQMNSLKPEDTAVYYCAARVYTVRAIGMGYWGQGTQVTVSS	high polyreactivity
QVQLVESGGGLVQAGGSLRLSCAASGRIFVSNTMGWYRQAPGKERELVAVIRTDSGSTYYADSVKGRFTISRDNAKNTVYLQMNSLKPEDTAVYYCAKVAYFASYRTGFYYWGQGTQVTVSS	high polyreactivity
QVQLVESGGGLVQAGGSLRLICAASGITFYVYTMGWYRQAPGKERELVAAINGSGGSTNYADSVKGRFTISRDNAKNTVYLQMNSLKPEDTAVYYCAADWSLRLYDYWGQGTQVTVSS	low polyreactivity
QVQLVESGGGLVQAGGSLRLSCAASGSIFRSNGMGWYREAPGKERELVAAITSSGGSTYYADTVKGRFTISRDNAKNTVYLHMNSLKPEDTAVYYCAKRWNWSYNYWGQGTQVTVSS	high polyreactivity
QVQLVESGGGLVQAGGSLRLSCAASGRTFRIYAMGWYRQAPGKERELVAAITKRGGITYYADSVKGRFTISRDNAKNTVYFQMNSLKPEDTAVYYCNKLPEPYDYDYWGQGTQVTVSS	high polyreactivity
QGQHVESGGGLVQARGSRRLSCAPSGRTFGYDAMGWYRQAPGKERELVAAINYSGVSTYYADSVKGGFTISRDTAKNTVYLQRNSLKPEDTAGSYCAAKGRYSVYSRNSWGQGTQVTVSS	high polyreactivity
QVQLVESGGGLVQAGGILRLSCAASGFNFSSYAMAWYRQAPGKERELVAAISGSGGTTYYADSVKGRFTISRDNANNTVYVLMNSLKPEDTAVYYCATRRGLVITKYGYDYWGQGTQVTVSS	high polyreactivity
QVQLVESGGGLVQAGGSLRLSCAASGSTFLINAMGWYRQAPGKERELVAAITASGGSTYADSVKGRFTISRDNAKNTVYLQMNSLKPEDTAVYYCAARYFPRHRYYYWGQGTQVTVSS	high polyreactivity
